Patent US20210196795A1 (LAURANTIS PHARMA, published 2021)

T1: uncleaved full-length VEGF-C (58 kDa precursor) (Homo sapiens (Human), UniProt P49767 32-419)
T1 construct: Made by transfected 293T cells from the mammalian VEGF-C construct of Joukov et al 1997; also called VEGF-C precursor; prepro-VEGF-C
T1 sequence: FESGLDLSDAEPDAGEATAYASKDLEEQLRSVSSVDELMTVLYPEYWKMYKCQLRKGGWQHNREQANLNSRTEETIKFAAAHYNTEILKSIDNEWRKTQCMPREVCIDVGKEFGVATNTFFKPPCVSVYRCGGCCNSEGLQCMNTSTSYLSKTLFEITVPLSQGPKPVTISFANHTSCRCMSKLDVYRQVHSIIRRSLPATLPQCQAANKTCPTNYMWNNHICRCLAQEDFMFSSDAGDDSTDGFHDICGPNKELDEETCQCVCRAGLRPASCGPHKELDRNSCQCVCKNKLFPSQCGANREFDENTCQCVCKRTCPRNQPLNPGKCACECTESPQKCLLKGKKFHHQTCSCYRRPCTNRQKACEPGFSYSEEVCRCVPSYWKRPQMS

B1: CCBE1-strepIII (human CCBE1 with StrepIII-tag) (other)
chain: YREEPEDGDREICSESKIATTKYPCLKSSGELTTCYRKKCCKGYKFVLGQCIPEDYDVCAEAPCEQQCTDNFGRVLCTCYPGYRYDRERHRKREKPYCLDIDECASSNGTLCAHICINTLGSYRCECREGYIREDDGKTCTRGDKYPNDTGHEKSENMVKAGTCCATCKEFYQMKQTVLQLKQKIALLPNNAADLGKYITGDKVLASNTYLPGPPGLPGGQGPPGSPGPKGSPGFPGMPGPPGQPGPRGSMGPMGPSPDLSHIKQGRRGPVGPPGAPGRDGSKGERGAPGPRGSPGPPGSFDFLLLMLADIRNDITELQEKVFGHRTHSSAEEFPLPQEFPSYPEAMDLGSGDDHPRRTETRDLRAPRDFYP
notes: Secreted into 293T conditioned medium; also called strep-tagged CCBE1; not shown: StrepIII-tag (Junttila et al 2005) inserted immediately after the CCBE1 CDS

Legend:
[1] = target: human CCBE1 fused to a V5 tag (human) (UniProt Q6UXH8); test: cell-based or functional assay
[2] = target: T1, uncleaved full-length VEGF-C (58 kDa …); test: Strep-Tactin pull-down of mixed 293T conditioned media (CCBE1-strepIII and full-length VEGF-C, 10 min at RT), Western blot with anti-CCBE1 antibody and anti-VEGF-C antiserum
Experimental: Co-immunoprecipitation analysis of strep-tagged CCBE1. […] Mixed media were incubated for 10 min at RT before being applied to the pull-down.

Molecule | inhibition of VEGF-C processing [1] [%] | binding result [2]
VEGF-C C-terminal propeptide, hexahistidine-tagged (from UniProt P49767 228-419) | 79 | 
VEGF-C N-terminal propeptide, hexahistidine-tagged (from UniProt P49767 32-111) | 43 | 
B1 |  | no binding
